Data set [1] deals with the molecule itself. The data set is described as follows: AUC; sedimentation velocity; 13 μM protein in 10 mM HEPES pH 7.4, 120 mM NaCl, 0.25% glycerol, 4°C, 40,000 rpm; c(s) and c(M) distributions (SEDFIT).
Data set [2] deals with the molecule itself. The data set is described as follows: AUC; sedimentation equilibrium; protein at 6.5, 11.9 and 25.2 μM, 10,000 and 15,000 rpm; global fit to a self-association model; dimer to monomers.

The values that follow come from PMC2100151, “Structural and Functional Characterization of the Human Protein Kinase ASK1” (Structure(London, England:1993), 2007).

Broadly, the stoichiometry N is the number of molecules, sites or subunits per partner or assembly. The term Kd denotes the constant that tells how readily two partners part at equilibrium.

B1: Human ASK1 catalytic (kinase) domain, homogeneously triphosphorylated (domain or fragment)
chain: not shown
modifications: phosphothreonine at 813, 838 and 842 (autophosphorylation sites identified by mass spectrometry)
notes: Apoptosis signal-regulating kinase 1 (ASK1, MAP3K5), human, residues 659-951, gi|5174547; the same recombinant construct as m1, autophosphorylated; also called Tri-phosphorylated ASK1; triphosphorylated ASK1; source: recombinant protein treated with ATP/Mg2+ (autophosphorylated)
Turning to B1, in data set [1], the “stoichiometry N” value came to 2.

B2: Human ASK1 catalytic (kinase) domain, residues 659-951, phosphatase-treated (domain or fragment)
chain: not shown
modifications: mixture of un- and monophosphorylated protein; Thr838 partially phosphorylated in the crystal
notes: Apoptosis signal-regulating kinase 1 (ASK1, MAP3K5), human, residues 659-951 of the 1,374-residue protein, gi|5174547; Crystallised with 1 mM staurosporine; also called MAP3K5; ASK1 kinase domain; not shown: His6, N-terminal, cleaved
The protein B2 showed a Kd in data set [2] of 220 ± 200 nM. In addition, the “stoichiometry N” value in data set [1] turned out to be 2.
